Experiments:
[1] = Ca2+-responsive mFAP Ca2+ titrations; assay type: binding; settings: in the presence of excess DFHBI
Experimental: In measuring Ca^2+ affinity of mFAPs on a Synergy Neo2 hybrid multi-mode reader (Fig. 4d, e, f and Supplementary Figs. 10c, f, i, 11c, f, i, 13c, f, i, 16b), large-scale purified proteins[49] were aliquoted in technical triplicate to a final concentration of 500 nM with 5.00 μM DFHBI in eleven serial dilutions ( 10 dilution factor) of CaCl2 (Sigma Aldrich) starting from either 900 mM or 90.0 mM CaCl2 (diluted using high-salt Tev cleavage buffer) including a twelfth condition without CaCl2. Final volumes were 200 μL in flat bottom, black polystyrene, non-binding surface 96-well microplates (Corning 3650). Fluorescence endpoints were measured using excitation wavelength λex = 484 nm and emission wavelength λem = 508 nm. Background fluorescence endpoints of wells with identical chromophore and CaCl2 concentrations lacking protein (substituted for equivalent volumes of high-salt Tev cleavage buffer) were measured in technical triplicate, averaged per condition, and subtracted from protein measurement averages of the same conditions.
For Ca^2+ titrations of EF4n_mFAP2a and EF4n_mFAP2b (Supplementary Fig. 13c), a small amount of Chelex 100 sodium form (Sigma Aldrich) was added to purified protein (produced by large-scale protein purification and SEC purification[49]) and nutated at 4 °C overnight. EF4n_mFAP2a was aliquoted in technical triplicate to a final concentration of 8.00 μM with 80.0 μM DFHBI and EF4n_mFAP2b was aliquoted in technical triplicate to a final concentration of 6.25 μM with 43.4 μM DFHBI, in eleven serial dilutions ( 10 dilution factor) of CaCl2 starting from 9.00 mM or 4.00 mM CaCl2 (diluted using high-salt Tev cleavage buffer pre-treated with Chelex 100) including a twelfth condition without CaCl2. Final volumes were 25.0 μL in flat bottom, black polystyrene, non-binding surface 96-well half-area microplates (Corning 3686) or 200 μL in flat bottom, black polystyrene, non-binding surface 96-well microplates (Corning 3650). Fluorescence endpoints were measured for EF4n_mFAP2a using excitation wavelength λex = 478 nm and emission wavelength λem = 520 nm, and for EF4n_mFAP2b using excitation wavelength λex = 484 nm and emission wavelength λem = 508 nm. Background fluorescence endpoints of wells with identical chromophore and CaCl2 concentrations lacking protein (substituted for equivalent volumes of high-salt Tev cleavage buffer) were measured in technical triplicate, averaged per condition, and subtracted from protein measurement averages of the same conditions. For non-linear least squares fitting to obtain Kd values, means were fit to a single-binding site isotherm function where Ca^2+-binding sites were modeled independently with a Hill coefficient of 1.

[2] = Ca2+-responsive mFAP DFHBI titrations; assay type: binding; settings: in the presence of excess Ca2+ (Kd+)
Experimental: Final volumes were 25.0 μL in flat bottom, black polystyrene, non-binding surface 96-well half-area microplates (Corning 3686) or 200 μL in flat bottom, black polystyrene, non-binding surface 96-well microplates (Corning 3650). Fluorescence endpoints were measured using excitation wavelength λex = 488 nm and emission wavelength λem = 510 nm. Background fluorescence endpoints of wells with identical chromophore concentrations lacking protein (substituted for equivalent volumes of high-salt Tev cleavage buffer) were measured and subtracted from protein measurements prior to normalization.
For DFHBI titrations of EF4n_mFAP2a and EF4n_mFAP2b (Supplementary Fig. 13a, b), a small amount of Chelex 100 sodium form (Sigma Aldrich) was added to purified protein (produced by large-scale protein purification and SEC purification[49]) and nutated at 4 °C overnight. […] Fluorescence endpoints were measured using excitation wavelength λex = 488 nm and emission wavelength λem = 510 nm for EF4n_mFAP2b, and excitation wavelength λex = 478 nm and emission wavelength λem = 520 nm for EF4n_mFAP2a. Background fluorescence endpoints of wells with identical chromophore concentrations lacking protein (substituted for equivalent volumes of Chelex 100 pre-treated high-salt Tev cleavage buffer) were measured and subtracted from protein measurements prior to normalization.

HEK293 cells = assay: HEK293 cell surface-displayed Ca2+ titrations; assay type: cell-based; settings: Ca2+ from 0 to 10 mM; 7.00 µM DFHBI; extracellular display
Experimental: Plasmid DNAs (Supplementary Data 15 and Supplementary Data 17) were purified in ddH2O for transfections. pGP-CMV-GCaMP6f was a gift from Douglas Kim & GENIE Project (Addgene plasmid #40755; [http://n2t.net/addgene:40755]; RRID: Addgene_40755). Wild-type HEK293 cells (ATCC CRL-1573) were cultured on 24-well plates in DMEM media (4.5 g L^−1 D-glucose, L-glutamine; ThermoFisher #11965-092) supplemented with 10% FBS and 1% Penicillin/Streptomycin in a 5% CO2 atmosphere at 37 °C. Cells were seeded into 24-well plates (ThermoFisher #FB012929) at 100,000 cells well^−1. Twenty-four hours after seeding, cell media was aspirated and replaced with 200 μL of DMEM media. […]
Data analysis: Regions of interest (ROIs) surrounding single cells from three technical replicates were hand-drawn in ImageJ software. For each cellular ROI in each frame the average fluorescence was calculated in ImageJ. In order to perform background subtraction, cellular ROIs were then moved proximal to the original cell to an ROI where there was no fluorescence. Each cellular ROIs average fluorescence had the average background intensity subtracted for each frame. […]

Molecule	reduction of Ca2+ affinity compared with EF1p2_mFAP2b [1]	reduction of DFHBI affinity compared with EF1p2_mFAP2b [2]	fluorescence fold-change (ΔF/F0) (HEK293 cells)
EF1p2_mFAP2b (K101A): K101A lysine-to-alanine substitution in EF1p2_mFAP2b (protein) SRAAQLLPGTWQVTMTNEDGQTSQGQWHFQPRSPYTMDIVAQGTISDGRPIVGYGKATVKTPDTLDIDITYPSLGNIKAQGQITMDSPTQFKWDAHYKGDADGDGYISAAEAAAQGLTGTLQRQE	~ 29 fold	~ 21 fold	–
EF1p_mFAP2b: positively allosteric Ca2+-responsive mFAP, one EF-hand motif (protein) SRAAQLLPGTWQVTMTNEDGQTSQGQWHFQPRSPYTMDIVAQGTISDGRPIVGYGKATVKTPDTLDIDITYPSLGNIKAQGQITMDSPTQFKWDAHYKGDKDGDGYISAAEAAAQILTGTLQRQE	–	–	~ 0.5
